Measurements as given in patent US20110091971A1, “Differentiation of Pluripotent Stem Cells” (priority 2008, published 2011).

Assays:
[1] = test system: Human Embryonic Stem Cells (H1 hESC line); assay: FACS analysis of CXCR4 at conclusion of first step of step-wise differentiation (Example 12); format: cell-based; conditions: 100 ng/ml peptide, end of first step (three days), FIG. 23A, 23B
Procedure: (§1) Preparation of Cells for Assay: Stock Cultures of Human Embryonic Stem Cells (H1 hESC line) were maintained in an undifferentiated, pluripotent state on growth factor-reduced MATRIGEL™-coated dishes in MEF conditioned medium supplemented with bFGF (PeproTech; Cat #100-18B) with passage on average every, four days. Passage was performed by exposing cell cultures to a solution of 1 mg/ml collagenase (Invitrogen, Cat #17104-019) for five to seven minutes at 37° C. followed by rinsing the monolayer with MEF conditioned medium and gentle scraping to recover cell clusters. Clusters were centrifuged at low speed to collect a cell pellet and remove residual collagenase. Cell clusters were split at a 1:3 or 1:4 ratio for routine maintenance culture or a 1:1 ratio for immediate assay. All human ES cell lines were maintained at passage numbers less than 50 and routinely evaluated for normal karyotypic phenotype and for absence of mycoplasma contamination.
(§2) Cell clusters were evenly resuspended in MEF conditioned medium supplemented with 8 ng/ml bFGF and seeded onto growth factor-reduced MATRIGEL™-coated 24-well, black wall culture plates (Arctic White; Cat #AWLS-303012) in volumes of 0.5 ml/well. Daily feeding was conducted by aspirating spent culture medium from each well and replacing with an equal volume of fresh medium. Plates were maintained at 37° C., 5% CO2 throughout the duration of assay.
(§3) Assay: The assay was initiated by aspirating culture medium from each well and adding back an aliquot (0.5 ml) of test medium. Test conditions for the first step of differentiation were conducted over a three-day period, feeding daily by aspirating and replacing the medium from each well with fresh test medium. Concentrated supernatants of the ACTN peptides were evaluated for protein concentration using a DuoSet ELISA kit for human activin A (R&D Systems; Cat #DY338), as previously described in Example 11. On the first day of assay, ACTN peptides were diluted to a final concentration of 100 ng/ml in RPMI 1640 medium (Invitrogen; Cat #: 22400) with 2% Albumin Bovine Fraction V, Fatty Acid Free (FAF BSA) (MP Biomedicals, Inc; Cat #152401), 8 ng/ml bFGF, and 20 ng/ml Wnt3a (R&D Systems; Cat #1324-WN/CF) and then added to the assay wells. On the second and third day of assay, ACTN peptides were diluted into RPMI 1640 medium supplemented with 2% fatty acid free BSA and 8 ng/ml bFGF, without any Wnt3a and then added to the assay wells. A positive control sample included a commercial source of activin A (PeproTech; Cat #12 0-14) diluted in culture medium with growth factors as indicated. At the conclusion of three days culture, cells from some wells were harvested for analysis by flow cytometry to evaluate levels of CXCR4, a marker of definitive endoderm formation. […]

[2] = test system: Human Embryonic Stem Cells (H1 hESC line); assay: High content analysis of cell number and SOX17 expression at end of first step of differentiation (Example 12); format: cell-based; conditions: 100 ng/ml peptide, FIG. 23C-F
Procedure: as §1, §2, §3

Row | Molecule | CXCR4 expression (FACS) [1] | cell number and SOX17 expression (high content analysis) [2]
1 | ACTN1: wild type Activin A mature protein (SwissProt/UniProt: P08476), SEQ ID 2, expressed from applicant's construct (protein) GLECDGKVNICCKKQFFVSFKDIGWNDWIIAPSGYHANYCEGECPSHIAGTSGSSLSFHSTVINHYRMRGHSPFANLKSCCVPTKLRPMSMLYYDDGQNIIKKDIQNMIVEECGCS | equivalent and robust CXCR4 expression | equivalent results
2 | ACTN48: activin A variant peptide, SEQ ID 49 (protein) GLECDGKVNLCCKKQNFVSFKDIGWNDWIIAPSGYHANECSGLCPSHIAGTSGSSLSFHSTVINHYRMRGHSPFANMGACCIPTKLRPMSMLYYDDGQNIIKKDIQNMIVEECGCS | equivalent or comparable | comparable results
3 | ACTN4: activin A variant peptide, SEQ ID 5 (protein) GLECDGKVNLCCKKQLFVSFKDIGWNDWIIAPSGYHANHCSGLCPSHIAGTSGSSLSFHSTVINHYRMRGHSPFSDMGACCVPTKLRPMSMLYYDDGQNIIKKDIQNMIVEECGCS | equivalent or comparable | comparable results
